Data as given in patent publication US20220325265A1, “GLUCOCEREBROSIDASE MUTANTS” (Hoffmann-la Roche Inc., priority 2019, published 2022).

Legend:
[1] = system: H4 glioblastoma GBA-KO cells; assay: Reduction of natural substrate GlcSph in H4 GBA-KO cells (LC/MS); assay type: cell-based, human; conditions: 48 h, vs untreated H4 GBA-KO cells
Method: FIG. 9: Reduction of the natural substrate GlcSph after treatment of H4 glioblastoma GBA-KO cells with hGCase molecules. Treatment concentration (hGCase protein): 1, 10 and 100 nM, respectively. Analysis of substrate levels after 48 h of incubation via LC/MS. H4 wt cells (GCase levels normalized to 100%) and H4 GBA-KO cells (loss of GBA gene) served as control. ^1 measured glucosylsphingosine (GlcSph) levels normalized to total protein amount. ^2 H4 glioblastoma cells with knock-out GBA gene.
(§1) Human H4 glioblastoma cells (H4 cells) were taken as human neuronal model to test purified hGCase variants in a cell-based setup. H4 wild-type cells and untreated H4 GBA-KO cells (knock-out of related GCase GBA gene) were taken as references. After seeding (40000 cells/well) and incubating them for ˜24 h, the GBA-KO cells were treated with 1, 10 and 100 nM of target protein sample and incubated for either 2 h (for uptake and GCase activity measurements) or 48 h (for substrate reduction measurements) at 37° C. with 5% CO2 and constant humidity. After cell-lysis (GCase activity buffer (table 2.6)+0.1% (w/v) Triton X-100+phosphatase (Phospho stop Roche in-house)+protease inhibitor (cOmplete EDTA-free)), the uptake of the enzymes into the cells was evaluated by measuring the hGCase concentration via AlphaLISA (section 2.3.6) as well as the activity after the uptake (section 2.3.5). Samples for substrate reduction determination were hand over to Iris Ruf (SMR, see section 2.7). Due to the loss of the GCase related GBA gene in H4 GBA-KO cells, the natural substrate glucosylsphingosine (GlcSph) accumulates. The reduction of GlcSph levels due to hGCase treatment was evaluated via LC/MS by Iris Ruf (SMR).
(§2) Finally, the cellular uptake, activity and substrate reduction in human neuronal cells were determined to test the mutants' efficacy in a more cellular context. In this work, human H4 glioblastoma wild-type cells (wt) and H4 GBA-KO cells (knock-out of GCase related GBA gene) were used as a Gaucher cell model. H4 GBA-KO cells, which accumulate the natural substrate glucosylsphingosine (GlcSph) due to the loss of the GBA gene, were treated with 1, 10 and 100 nM of hGCase molecules, respectively. Activity and protein concentration (via AlphaLISA) were measured after two hours of incubation after several media wash steps. The reduction of natural substrate GlcSph was analyzed 48 h after cell treatment via LC/MS. The activity measured after uptake into the cells normalized to measured hGCase protein levels is graphed in FIG. 8. The evaluated activities are given as percentage of hGCase activity measured in wt H4 cells, set to 100%.
To determine the enzymes' efficacies, the reduction of accumulated glucosylsphingosine (GlcSph) in H4 GBA-KO cells was investigated.

[2] = Activatability of hGCase mutants by phosphatidylserine; assay type: biochemical; conditions: 25 nM protein; for phosphatidylserine activation, fold increase of initial activity: 4 μM phosphatidylserine, 10 min pre-incubation at RT
Method: Negatively charged lipids as phosphatidylserine are known to stabilize and activate the enzyme usually in combination with Saposin C (SAP-2), since GCase is naturally interacting with the membrane of the lysosomes in vivo. For the assay, 25 nM protein and 4 μM phosphatidylserine (Avanti; 10 mM stock solution dissolved in chloroform) were tested.
After adding the lipid to the enzyme, the solution was pre-incubated for 10 min at RT before adding the substrate and initializing the enzymatic reaction. The hGCase activity without added phosphatidylserine was set to 100% relative enzyme activity. The increase in activity was expressed as X-fold the initial activity without activator.
Several physiological substances have been reported to stimulate the activity of glucocerebrosidase. GCase is naturally interacting with the membrane of the lysosomes in vivo, thus negatively charged lipids such as phosphatidylserine are known to stabilize and activate the enzyme alone or in combination with Saposin C (SAP-2) (Qi & Grabowski, 1998; Sun et al., 2002; Vaccaro et al., 1995). Thus, it is essential to preserve these properties when modifying the GCase enzyme structure. To this end, the effect of phosphatidylserine alone was evaluated as first approach. The activity levels with and without added phosphatidylserine are plotted in FIG. 6.
By translating the data into fold increase of the initial activity, a more conclusive statement can be drawn (FIG. 7).

[3] = system: H4 glioblastoma GBA-KO cells; assay: GCase activity after uptake into H4 GBA-KO cells, normalized to hGCase protein level; assay type: cell-based, human; conditions: 2 h incubation
Method: FIG. 8: Activity levels normalized to hGCase protein levels measured after treatment of H4 glioblastoma GBA-KO cells with hGCase molecules. Treatment concentration (hGCase protein): 1, 10 and 100 nM (100 nM not shown herein), respectively. Activity and protein amount measurement after 2 h of incubation. Activity measured with artificial substrate res-β-glc (20 μM); protein concentration determination via AlphaLISA (section 2.3.6). H4 wt cells (GCase levels normalized to 100%) and H4 GBA-KO cells (loss of GBA gene) served as control. ^1 GCase activity measured in H4 cells normalized to activity measured in H4 (wt) cells designated to 100% and normalized to protein amount. ^2 H4 glioblastoma cells with knock-out GBA gene.
as §1
as §2, with “H4 GBA-KO cells, which accumulate the natural substrate glucosylsphingosine (GlcSph) due to the loss of the GBA gene, were treated with 1, 10 and 100 nM of hGCase molecules, respectively.” left out

Molecule | phosphatidylserine activation, fold increase of initial activity [2] [fold] | basal activity level (no added lipid) ([2]; no phosphatidylserine) | reduction in GlcSph levels (%) ([1]; 10 nM treatment) | reduction in GlcSph levels (fold) ([1]; 10 nM treatment) | reduction in GlcSph levels (%) ([1]; 1 nM treatment) | GCase activity level normalized to H4 wt GCase activity (100%) and protein amount ([3]; 1 nM protein treatment) [%] | GCase activity level normalized to H4 wt GCase activity (100%) and protein amount ([3]; 10 nM protein treatment) [%]
K321N/H145L: Amicus double mutant hGCase R495H/K321N/H145L produced in S2 cells; Seq. Id. No. 3 (protein, listed as Homo sapiens, Amicus double mutant hGCase R495H/K321N/H145L produced in S2 cells; Id; No. 3) ARPCIPKSFGYSSVVCVCNATYCDSFDPPTFPALGTFSRYESTRSGRRMELSMGPIQANHTGTGLLLTLQPEQKFQKVKGFGGAMTDAAALNILALSPPAQNLLLKSYFSEEGIGYNIIRVPMASCDFSIRTYTYADTPDDFQLLNFSLPEEDTKLKIPLIHRALQLAQRPVSLLASPWTSPTWLKTNGAVNGKGSLKGQPGDIYHQTWARYFVKFLDAYAEHKLQFWAVTAENEPSAGLLSGYPFQCLGFTPEHQRDFIARDLGPTLANSTHHNVRLLMLDDQRLLLPHWAKVVLTDPEAAKYVHGIAVHWYLDFLAPANATLGETHRLFPNTMLFASEACVGSKFWEQSVRLGSWDRGMQYSHSIITNLLYHVVGWTDWNLALNPEGGPNWVRNFVDSPIIVDITKDTFYKQPMFYHLGHFSKFIPEGSQRVGLVASQKNDLDAVALMHPDGSAVVVVLNRSSKDVPLTIKDPAVGFLETISPGYSIHTYLWHRQ | ~2.8 | – | – | – | – | – | –
I5N: recombinant human β-glucocerebrosidase variant R495H/I5N, S2 cells; Seq. Id. No. 4 (protein, listed as Homo sapiens, recombinant human β-glucocerebrosidase variant R495H/I5N, S2 cells; Id; No. 4) ARPCNPKSFGYSSVVCVCNATYCDSFDPPTFPALGTFSRYESTRSGRRMELSMGPIQANHTGTGLLLTLQPEQKFQKVKGFGGAMTDAAALNILALSPPAQNLLLKSYFSEEGIGYNIIRVPMASCDFSIRTYTYADTPDDFQLHNFSLPEEDTKLKIPLIHRALQLAQRPVSLLASPWTSPTWLKTNGAVNGKGSLKGQPGDIYHQTWARYFVKFLDAYAEHKLQFWAVTAENEPSAGLLSGYPFQCLGFTPEHQRDFIARDLGPTLANSTHHNVRLLMLDDQRLLLPHWAKVVLTDPEAAKYVHGIAVHWYLDFLAPAKATLGETHRLFPNTMLFASEACVGSKFWEQSVRLGSWDRGMQYSHSIITNLLYHVVGWTDWNLALNPEGGPNWVRNFVDSPIIVDITKDTFYKQPMFYHLGHFSKFIPEGSQRVGLVASQKNDLDAVALMHPDGSAVVVVLNRSSKDVPLTIKDPAVGFLETISPGYSIHTYLWHRQ | 7.5 | least basal activity level | ~75 | 4 | – | – | –
M53T/P55T: recombinant human β-glucocerebrosidase variant R495H/M53T/P55T, S2 cells; Seq. Id. No. 7 (protein, listed as Homo sapiens, recombinant human β-glucocerebrosidase variant R495H/M53T/P55T, S2 cells; Id; No. 7) ARPCIPKSFGYSSVVCVCNATYCDSFDPPTFPALGTFSRYESTRSGRRMELSTGTIQANHTGTGLLLTLQPEQKFQKVKGFGGAMTDAAALNILALSPPAQNLLLKSYFSEEGIGYNIIRVPMASCDFSIRTYTYADTPDDFQLHNFSLPEEDTKLKIPLIHRALQLAQRPVSLLASPWTSPTWLKTNGAVNGKGSLKGQPGDIYHQTWARYFVKFLDAYAEHKLQFWAVTAENEPSAGLLSGYPFQCLGFTPEHQRDFIARDLGPTLANSTHHNVRLLMLDDQRLLLPHWAKVVLTDPEAAKYVHGIAVHWYLDFLAPAKATLGETHRLFPNTMLFASEACVGSKFWEQSVRLGSWDRGMQYSHSIITNLLYHVVGWTDWNLALNPEGGPNWVRNFVDSPIIVDITKDTFYKQPMFYHLGHFSKFIPEGSQRVGLVASQKNDLDAVALMHPDGSAVVVVLNRSSKDVPLTIKDPAVGFLETISPGYSIHTYLWHRQ | 6.5 | – | ~88 | 8.3 | – | ~4 | 26

The next lines start with results.

phosphatidylserine activation, fold increase of initial activity [2] [fold] | basal activity level (no added lipid) ([2]; no phosphatidylserine) | Molecule | reduction in GlcSph levels (%) ([1]; 10 nM treatment) | reduction in GlcSph levels (fold) ([1]; 10 nM treatment) | reduction in GlcSph levels (%) ([1]; 1 nM treatment) | GCase activity level normalized to H4 wt GCase activity (100%) and protein amount ([3]; 1 nM protein treatment) [%] | GCase activity level normalized to H4 wt GCase activity (100%) and protein amount ([3]; 10 nM protein treatment) [%]
4.9 | – | R495HS2: hGCase based on the Cerezyme sequence (R495H) but produced in S2 cells, His8-tagged; Seq. Id. No. 1 (protein, listed as Homo sapiens, His8 tag) ARPCIPKSFGYSSVVCVCNATYCDSFDPPTFPALGTFSRYESTRSGRRMELSMGPIQANHTGTGLLLTLQPEQKFQKVKGFGGAMTDAAALNILALSPPAQNLLLKSYFSEEGIGYNIIRVPMASCDFSIRTYTYADTPDDFQLHNFSLPEEDTKLKIPLIHRALQLAQRPVSLLASPWTSPTWLKTNGAVNGKGSLKGQPGDIYHQTWARYFVKFLDAYAEHKLQFWAVTAENEPSAGLLSGYPFQCLGFTPEHQRDFIARDLGPTLANSTHHNVRLLMLDDQRLLLPHWAKVVLTDPEAAKYVHGIAVHWYLDFLAPAKATLGETHRLFPNTMLFASEACVGSKFWEQSVRLGSWDRGMQYSHSIITNLLYHVVGWTDWNLALNPEGGPNWVRNFVDSPIIVDITKDTFYKQPMFYHLGHFSKFIPEGSQRVGLVASQKNDLDAVALMHPDGSAVVVVLNRSSKDVPLTIKDPAVGFLETISPGYSIHTYLWHRQ | ~75 | 4 | – | – | –
11.5 | – | imiglucerase (protein, UniProt P04062 40-536, looked up, variant R495H, imiglucerase; CHO-produced, Commercially available Cerezyme (imiglucerase, Genzyme), hGCase R495H produced in CHO cells) Lysosomal acid …: ARPCIPKSFGYSSVVCVCNATYCDSFDPPTFPALGTFSRYESTRSGRRMELSMGPIQANHTGTGLLLTLQPEQKFQKVKGFGGAMTDAAALNILALSPPAQNLLLKSYFSEEGIGYNIIRVPMASCDFSIRTYTYADTPDDFQLHNFSLPEEDTKLKIPLIHRALQLAQRPVSLLASPWTSPTWLKTNGAVNGKGSLKGQPGDIYHQTWARYFVKFLDAYAEHKLQFWAVTAENEPSAGLLSGYPFQCLGFTPEHQRDFIARDLGPTLANSTHHNVRLLMLDDQRLLLPHWAKVVLTDPEAAKYVHGIAVHWYLDFLAPAKATLGETHRLFPNTMLFASEACVGSKFWEQSVRLGSWDRGMQYSHSIITNLLYHVVGWTDWNLALNPEGGPNWVRNFVDSPIIVDITKDTFYKQPMFYHLGHFSKFIPEGSQRVGLVASQKNDLDAVALMHPDGSAVVVVLNRSSKDVPLTIKDPAVGFLETISPGYSIHTYLWHRQ | 97 | – | 82 | 4 | 44
